Experimental data from the supplement of paper PMC5998384.

Key:
HeLa Kyoto [1] = assay: solubility change mitosis vs G1/S (difference of NP-40 vs SDS log2 ratios) (log2 ratio difference); higher = more soluble in mitosis
HeLa Kyoto [2] = assay: solubility in G1/S (NP-40 vs SDS abundance) (log2 ratio); higher = more soluble; details: cell cycle stage: G1/S
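Wherever solubility change mitosis vs G1/S (difference of NP-40 vs SDS log2 ratios) is given: synchronized HeLa Kyoto cells (double thymidine block for G1/S, nocodazole release for mitosis), protein amounts in NP-40 versus SDS lysates quantified by mass spectrometry, three biological replicates.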
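Wherever solubility in G1/S (NP-40 vs SDS abundance) is given: HeLa Kyoto cells arrested at G1/S by double thymidine block, proteins quantified by TMT10plex mass spectrometry in mild NP-40 versus SDS extracts, three biological replicates.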

| Sequence | solubility change mitosis (log2) (HeLa Kyoto [1]) | solubility in G1/S (log2) (HeLa Kyoto [2]) |
| --- | --- | --- |
| MMDSPFLELWQSKAVSIREQLGLGDRPNDSYCYNSAKNSTVLQGVTFGGIPTVLLIDVSCFLFLILVFSIIRRRFWDYGRIALVSEADSESRFQRLSSTSSSGQQDFENELGCCPWLTAIFRLHDDQILEWCGEDAIHYLSFQRHIIFLLVVVSFLSLCVILPVNLSGDLLDKDPYSFGRTTIANLQTDNDLLWLHTIFAVIYLFLTVGFMRHHTQSIKYKEENLVRRTLFITGLPRDARKETVESHFRDAYPTCEVVDVQLCYNVAKLIYLCKEKKKTEKSLTYYTNLQVKTGQRTLINPKPCGQFCCCEVLGCEWEDAISYYTRMKDRLLERITEEERHVQDQPLGMAFVTFQEKSMATYILKDFNACKCQSLQCKGEPQPSSHSRELYTSKWTVTFAADPEDICWKNLSIQGLRWWLQWLGINFTLFLGLFFLTTPSIILSTMDKFNVTKPIHALNNPIISQFFPTLLLWSFSALLPSIVYYSTLLESHWTKSGENQIMMTKVYIFLIFMVLILPSLGLTSLDFFFRWLFDKTSSEASIRLECVFLPDQGAFFVNYVIASAFIGNGMELLRLPGLILYTFRMIMAKTAADRRNVKQNQAFQYEFGAMYAWMLCVFTVIVAYSITCPIIAPFGLIYILLKHMVDRHNLYFVYLPAKLEKGIHFAAVNQALAAPILCLFWLYFFSFLRLGMKAPATLFTFLVLLLTILVCLAHTCFGCFKHLSPLNYKTEEPASDKGSEAEAHMPPPFTPYVPRILNGLASERTALSPQQQQQQTYGAIHNISGTIPGQCLAQSATGSVAAAPQEA [TMEM63A] | 0.0055 | -0.142 |
| MMFRSDRMWSCHWKWKPSPLLFLFALYIMCVPHSVWGCANCRVVLSNPSGTFTSPCYPNDYPNSQACMWTLRAPTGYIIQITFNDFDIEEAPNCIYDSLSLDNGESQTKFCGATAKGLSFNSSANEMHVSFSSDFSIQKKGFNASYIRVAVSLRNQKVILPQTSDAYQVSVAKSISIPELSAFTLCFEATKVGHEDSDWTAFSYSNASFTQLLSFGKAKSGYFLSISDSKCLLNNALPVKEKEDIFAESFEQLCLVWNNSLGSIGVNFKRNYETVPCDSTISKVIPGNGKLLLGSNQNEIVSLKGDIYNFRLWNFTMNAKILSNLSCNVKGNVVDWQNDFWNIPNLALKAESNLSCGSYLIPLPAAELASCADLGTLCQATVNSPSTTPPTVTTNMPVTNRIDKQRNDGIIYRISVVIQNILRHPEVKVQSKVAEWLNSTFQNWNYTVYVVNISFHLSAGEDKIKVKRSLEDEPRLVLWALLVYNATNNTNLEGKIIQQKLLKNNESLDEGLRLHTVNVRQLGHCLAMEEPKGYYWPSIQPSEYVLPCPDKPGFSASRICFYNATNPLVTYWGPVDISNCLKEANEVANQILNLTADGQNLTSANITNIVEQVKRIVNKEENIDITLGSTLMNIFSNILSSSDSDLLESSSEALKTIDELAFKIDLNSTSHVNITTRNLALSVSSLLPGTNAISNFSIGLPSNNESYFQMDFESGQVDPLASVILPPNLLENLSPEDSVLVRRAQFTFFNKTGLFQDVGPQRKTLVSYVMACSIGNITIQNLKDPVQIKIKHTRTQEVHHPICAFWDLNKNKSFGGWNTSGCVAHRDSDASETVCLCNHFTHFGVLMDLPRSASQLDARNTKVLTFISYIGCGISAIFSAATLLTYVAFEKLRRDYPSKILMNLSTALLFLNLLFLLDGWITSFNVDGLCIAVAVLLHFFLLATFTWMGLEAIHMYIALVKVFNTYIRRYILKFCIIGWGLPALVVSVVLASRNNNEVYGKESYGKEKGDEFCWIQDPVIFYVTCAGYFGVMFFLNIAMFIVVMVQICGRNGKRSNRTLREEVLRNLRSVVSLTFLLGMTWGFAFFAWGPLNIPFMYLFSIFNSLQGLFIFIFHCAMKENVQKQWRQHLCCGRFRLADNSDWSKTATNIIKKSSDNLGKSLSSSSIGSNSTYLTSKSKSSSTTYFKRNSHTDNVSYEHSFNKSGSLRQCFHGQVLVKTGPC [GPR126] | -0.0428 | -0.117 |
| MMMVRRGLLAWISRVVVLLVLLCCAISVLYMLACTPKGDEEQLALPRANSPTGKEGYQAVLQEWEEQHRNYVSSLKRQIAQLKEELQERSEQLRNGQYQASDAAGLGLDRSPPEKTQADLLAFLHSQVDKAEVNAGVKLATEYAAVPFDSFTLQKVYQLETGLTRHPEEKPVRKDKRDELVEAIESALETLNSPAENSPNHRPYTASDFIEGIYRTERDKGTLYELTFKGDHKHEFKRLILFRPFGPIMKVKNEKLNMANTLINVIVPLAKRVDKFRQFMQNFREMCIEQDGRVHLTVVYFGKEEINEVKGILENTSKAANFRNFTFIQLNGEFSRGKGLDVGARFWKGSNVLLFFCDVDIYFTSEFLNTCRLNTQPGKKVFYPVLFSQYNPGIIYGHHDAVPPLEQQLVIKKETGFWRDFGFGMTCQYRSDFINIGGFDLDIKGWGGEDVHLYRKYLHSNLIVVRTPVRGLFHLWHEKRCMDELTPEQYKMCMQSKAMNEASHGQLGMLVFRHEIEAHLRKQKQKTSSKKT [CSGALNACT1] | 0.00125 | 0.0522 |
| MMQGNTCHRMSFHPGRGCPRGRGGHGARPSAPSFRPQNLRLLHPQQPPVQYQYEPPSAPSTTFSNSPAPNFLPPRPDFVPFPPPMPPSAQGPLPPCPIRPPFPNHQMRHPFPVPPCFPPMPPPMPCPNNPPVPGAPPGQGTFPFMMPPPSMPHPPPPPVMPQQVNYQYPPGYSHHNFPPPSFNSFQNNPSSFLPSANNSSSPHFRHLPPYPLPKAPSERRSPERLKHYDDHRHRDHSHGRGERHRSLDRRERGRSPDRRRQDSRYRSDYDRGRTPSRHRSYERSRERERERHRHRDNRRSPSLERSYKKEYKRSGRSYGLSVVPEPAGCTPELPGEIIKNTDSWAPPLEIVNHRSPSREKKRARWEEEKDRWSDNQSSGKDKNYTSIKEKEPEETMPDKNEEEEEELLKPVWIRCTHSENYYSSDPMDQVGDSTVVGTSRLRDLYDKFEEELGSRQEKAKAARPPWEPPKTKLDEDLESSSESECESDEDSTCSSSSDSEVFDVIAEIKRKKAHPDRLHDELWYNDPGQMNDGPLCKCSAKARRTGIRHSIYPGEEAIKPCRPMTNNAGRLFHYRITVSPPTNFLTDRPTVIEYDDHEYIFEGFSMFAHAPLTNIPLCKVIRFNIDYTIHFIEEMMPENFCVKGLELFSLFLFRDILELYDWNLKGPLFEDSPPCCPRFHFMPRFVRFLPDGGKEVLSMHQILLYLLRCSKALVPEEEIANMLQWEELEWQKYAEECKGMIVTNPGTKPSSVRIDQLDREQFNPDVITFPIIVHFGIRPAQLSYAGDPQYQKLWKSYVKLRHLLANSPKVKQTDKQKLAQREEALQKIRQKNTMRREVTVELSSQGFWKTGIRSDVCQHAMMLPVLTHHIRYHQCLMHLDKLIGYTFQDRCLLQLAMTHPSHHLNFGMNPDHARNSLSNCGIRQPKYGDRKVHHMHMRKKGINTLINIMSRLGQDDPTPSRINHNERLEFLGDAVVEFLTSVHLYYLFPSLEEGGLATYRTAIVQNQHLAMLAKKLELDRFMLYAHGPDLCRESDLRHAMANCFEALIGAVYLEGSLEEAKQLFGRLLFNDPDLREVWLNYPLHPLQLQEPNTDRQLIETSPVLQKLTEFEEAIGVIFTHVRLLARAFTLRTVGFNHLTLGHNQRMEFLGDSIMQLVATEYLFIHFPDHHEGHLTLLRSSLVNNRTQAKVAEELGMQEYAITNDKTKRPVALRTKTLADLLESFIAALYIDKDLEYVHTFMNVCFFPRLKEFILNQDWNDPKSQLQQCCLTLRTEGKEPDIPLYKTLQTVGPSHARTYTVAVYFKGERIGCGKGPSIQQAEMGAAMDALEKYNFPQMAHQKRFIERKYRQELKEMRWEREHQEREPDETEDIKK [DROSHA] | 0.203 | -0.744 |
| MNALLEQKEQQERLREAAALGDIREVQKLVESGVDVNSQNEVNGWTCLHWACKRNHGQVVSYLLKSGADKEILTTKGEMPVQLTSRREIRKIMGVEEEDDDDDDDDNLPQLKKESELPFVPNYLANPAFPFIYTPTAEDSAQMQNGGPSTPPASPPADGSPPLLPPGEPPLLGTFPRDHTSLALVQNGDVSAPSAILRTPESTKPGPVCQPPVSQSRSLFSSVPSKPPMSLEPQNGTYAGPAPAFQPFFFTGAFPFNMQELVLKVRIQNPSLRENDFIEIELDRQELTYQELLRVCCCELGVNPDQVEKIRKLPNTLLRKDKDVARLQDFQELELVLMISENNFLFRNAASTLTERPCYNRRASKLTY [ANKRD40] | -0.00743 | -0.0058 |
